# Reference: the supplement of paper PMC9170038
# Tested on: MS2 coat protein
# Test: apparent KD of MS2 coat protein; designed switch direction (-1 OFF switch, 1 ON switch): -1; higher = weaker reporter binding
# Outline: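 For each design, the apparent KD is the median over clusters of curves fitted to normalised cluster fluorescence. Clusters held RNA switches with common flanks, transcribed on Illumina chips by stalled E. coli RNA polymerase. These were titrated with SNAP-549-labelled MS2 coat protein, doubling from 0.7 or 1.5 nM to 3 µM, without input, with 200 uM small-molecule ligand, or with an oligonucleotide input.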
# [1] = Eterna round: R95, input ligand: FMN 200 uM
# [2] = Eterna round: R95, input ligand: microRNA oligo, concentration not stated
# [3] = Eterna round: R95, input ligand: none
# [4] = input ligand: microRNA oligo, concentration not stated
sequence,measurement,setting,value
"GGUAUACAUGAGGAUCACCCAUGUCAGGAUAUGGAAACCUGUGCCGAAAGGCACAGGGCCAGAAGGGACGAUAG [AK-MS2ROC-r4-exclusion1-5.3] (Eterna round: R97, puzzle: Exclusion 1)",apparent KD of MS2 coat protein,input ligand: FMN 200 uM,93.7 nM
same,apparent KD of MS2 coat protein,input ligand: none,82.9 nM
"UCGCAGGGAGGAUAUACACACAGGUGACGCAGCCCAAAAGAACAUGAGGAUCACCCAUGUAGAAGGCUCAAUAU [Eternabot (Original) Solution 2] (Eterna round: R97, puzzle: Exclusion 2)",apparent KD of MS2 coat protein,input ligand: FMN 200 uM,51.5 nM
same,apparent KD of MS2 coat protein,input ligand: none,31.2 nM
"GAUUAUGCGAGCUUUAGGGACAUGAGGAUCACCCAUGUUCGUCUUAUUAGUCUAGAUACACUGACAUACCUAAAUCU [JMF 57] (puzzle: Sensor v3, turn-off variant 1)",apparent KD of MS2 coat protein,[1],14.5 nM
same,apparent KD of MS2 coat protein,[2],18.2 nM
same,apparent KD of MS2 coat protein,[3],13.8 nM
UUCAGACAUGAGGAUCACCCAUGUGAGGAUAUGAUGCGAUCGUCGAAAGACGAUAGCAUCAGAAGGUACAAAUG [Fiskers Ex 1 - 19] (puzzle: Exclusion 1),apparent KD of MS2 coat protein,[2],61 nM
GUGUACAGAGGAUAUACUCAUGGAGUUACGAAAGUAACUUCACAUGAGGAUCACCCAUGUAGAAGGCUGUACAC [Dot plot directed v9] (puzzle: Exclusion 2),apparent KD of MS2 coat protein,[2],341 nM
"UUAAUUACGGUGCUUUAACCUCACAUGAGGAUCACCCAUGUGCAGGAUAUCAGCUCGAUUAGAGCUGAGAAGGGCACUGCACCG [ExNG3/11-A1] (Eterna round: R96, puzzle: Exclusion NG 3)",apparent KD of MS2 coat protein,input ligand: FMN 200 uM,15.1 nM
same,apparent KD of MS2 coat protein,[4],9.95 nM
same,apparent KD of MS2 coat protein,input ligand: none,12.5 nM
"AGUAGUAGUAUCCGAUCCUACAUGAGGAUCACCCAUGUAGCUAGACGUGCGCGCGAUGCUCGUCAGACUACCAGAUG [salish99_TOv1_r3_047] (puzzle: Sensor v3, turn-off variant 1)",apparent KD of MS2 coat protein,[1],159 nM
same,apparent KD of MS2 coat protein,[2],198 nM
same,apparent KD of MS2 coat protein,[3],276 nM
"UUUUGGCAUGUAGGAUAUGGGUCCGAUUAGGAUUUAGAAGGACAUGAGGAUCACCCAUGUGCCCUUAAUUGGUCUUUUUUUUUU [EXclNG1-LROPPY17] (Eterna round: R96, puzzle: Exclusion NG 1)",apparent KD of MS2 coat protein,input ligand: FMN 200 uM,55.8 nM
same,apparent KD of MS2 coat protein,[4],35.3 nM
same,apparent KD of MS2 coat protein,input ligand: none,44.4 nM
GUGUGCAGAGGAUAUACAGAGGAAGAGAAGAGAAGAGAAGGACAUGAGGAUCACCCAUGUAGAAGGCUGAGUGU [Excluse me!! 19 - Jieux - Exclusion 2] (puzzle: Exclusion 2),apparent KD of MS2 coat protein,[1],33.7 nM
same,apparent KD of MS2 coat protein,[2],30.2 nM
same,apparent KD of MS2 coat protein,[3],31.6 nM
"GUCUGCACGCUGCGGUCCUACAUGAGGAUCACCCAUGUGGUCUGGUGGCGUGGGUCACCGGACUUGGCUCGUCUUGC [salish99_S_TOV1_R5_052] (Eterna round: R97, puzzle: Sensor, turn-off variant 1)",apparent KD of MS2 coat protein,input ligand: FMN 200 uM,19.1 nM
same,apparent KD of MS2 coat protein,input ligand: none,18.9 nM
CGAAAGGUAGGAUAUACGAAGAAAAAGGGUAGAAUAAUAACACAUGAGGAUCACCCAUGUAGAAGGACCAAAGG [Mat - Exclusion 2 - Mod of my Tesla design - D12] (puzzle: Exclusion 2),apparent KD of MS2 coat protein,[1],13.3 nM
same,apparent KD of MS2 coat protein,[2],19.4 nM
same,apparent KD of MS2 coat protein,[3],33.2 nM
"ACAUGAGGAUCACCCAUGUCUGGCUGGUCCGUCUCGGCUGUCGAGGAUAUGGCUCGGUGUCCGCGCUAGAAGGCGGGAGCUGGC [Aenatbe mod 80] (Eterna round: R96, puzzle: Exclusion NG 3)",apparent KD of MS2 coat protein,input ligand: FMN 200 uM,75.2 nM
same,apparent KD of MS2 coat protein,[4],46.2 nM
same,apparent KD of MS2 coat protein,input ligand: none,89.3 nM
"CCGACGUGAGGAUAUCCAUCUGGAUCAGACUAGAUCCUGAUGGAGAAGGCACAUGAGGAUCACCCAUGUCACGG [Eli 4x 4.48] (Eterna round: R97, puzzle: Exclusion 4)",apparent KD of MS2 coat protein,input ligand: FMN 200 uM,413 nM
same,apparent KD of MS2 coat protein,input ligand: none,140 nM
"UCCUUACUGGUCAGGAUAUACAUUCGCUACUCCUUGUAGAAGGGACAUGAGGAUCACCCAUGUACGUUACAUCC [alecazam54b] (Eterna round: R97, puzzle: Brourd's mod of Exclusion 4)",apparent KD of MS2 coat protein,input ligand: FMN 200 uM,22.9 nM
same,apparent KD of MS2 coat protein,input ligand: none,21.6 nM
GGCAAUAUGUAGGAUAUCGUAUCGGAAACGAUACGAGAAGGGCAAACAUGAGGAUCACCCAUGUUCCUUAAGCC [Fiskers Ex 6 - 10] (puzzle: Exclusion 6),apparent KD of MS2 coat protein,[2],13.5 nM
"AUUAAACAUGUAGGAUAUGCGUGGCAAAGCUAUGCAGAAGGACAUGAGGAUCACCCAUGUAAAAGCGUCUGAGUACAGAUGCAA [Mat - Exclusion NG 1 - Mod of JL - D87] (Eterna round: R96, puzzle: Exclusion NG 1)",apparent KD of MS2 coat protein,input ligand: FMN 200 uM,374 nM
same,apparent KD of MS2 coat protein,[4],61.5 nM
same,apparent KD of MS2 coat protein,input ligand: none,62.9 nM
"AGUAGAUCUACGCUUGCGUGGAUCUGCAAUGUAGGUGUUACAUGAGGAUCACCCAUGUCCUCAUUUGCUCGUCUUAG [JL turnoff v2 99.10] (puzzle: Sensor v3, turn-off variant 2)",apparent KD of MS2 coat protein,[1],259 nM
same,apparent KD of MS2 coat protein,[2],810 nM
"ACAUGACAGCUAGGAUAUAUAUGACAUGAGGAUCACCCAUGUUGUCCCAUGUUGACGAAAACCGAAUAGAAGGAGCCACCCAUG [Ex NG2 #2] (Eterna round: R96, puzzle: Exclusion NG 2)",apparent KD of MS2 coat protein,input ligand: FMN 200 uM,86.1 nM
same,apparent KD of MS2 coat protein,[4],53.6 nM
same,apparent KD of MS2 coat protein,input ligand: none,71.4 nM
"CCUUCAGUAGUUAGGAUAUUUGGCGUCGAGGCGCAAGAGAAGGGACAUGAGGAUCACCCAUGUGAGUAUGGUAG [Eternabot (L1) Solution 35] (Eterna round: R97, puzzle: Brourd's mod of Exclusion 4)",apparent KD of MS2 coat protein,input ligand: FMN 200 uM,61.9 nM
same,apparent KD of MS2 coat protein,input ligand: none,63.1 nM
"UUAAUUUAAGGGAUAGAUCAUUACAUGAGGAUCACCCAUGUUGAGGAUAUCAGCUCGUUUAGAGCUGAGAAGGCAACAAUAGGG [ExNG3/14-A2] (Eterna round: R96, puzzle: Exclusion NG 3)",apparent KD of MS2 coat protein,input ligand: FMN 200 uM,58.9 nM
same,apparent KD of MS2 coat protein,[4],60 nM
same,apparent KD of MS2 coat protein,input ligand: none,163 nM
"AGCAGACGAGGAUAUAGAUUUGUUGACAUGAGGAUCACCCAUGUGAUCGAUCUAUCAUAUUUAGAAGGUGUCUGCU [JR_Ex5_Sub041] (Eterna round: R97, puzzle: Exclusion 5)",apparent KD of MS2 coat protein,input ligand: FMN 200 uM,18.6 nM
same,apparent KD of MS2 coat protein,input ligand: none,14.3 nM
UUAUACGUUGAGGAUAUGCGACUUUUUUUAGUUGUAGAAGGCGAUACAUGAGGAUCACCCAUGUUUAUGGGCAU [LRO-Ex6-11] (puzzle: Exclusion 6),apparent KD of MS2 coat protein,[2],137 nM
GCCAGAGCAGGAUAUUCAAUAAUCCACAUGAGGAUCACCCAUGUCUAGCGAAAGCUAGAGGGAGAAGGGCUCUGGC [Mat - Exclusion 5 - Eli mod - D90] (puzzle: Exclusion 5),apparent KD of MS2 coat protein,[2],57.2 nM
"GCCAACGACUGAGGAUAUGCUUAUAGACAUGAGGAUCACCCAUGUAAAUGGGACAUGUCAAACCAGCAGAAGGCAGGACCUGGC [Inteinrais] (Eterna round: R96, puzzle: Exclusion NG 2)",apparent KD of MS2 coat protein,input ligand: FMN 200 uM,100 nM
same,apparent KD of MS2 coat protein,[4],57.5 nM
same,apparent KD of MS2 coat protein,input ligand: none,70.3 nM
"AGUUGUUGUUUCCGUUCUUACAUGAGGAUCACCCAUGUUUCUUGUCGUGCUCGCGUUGCUCGUCAGACUUCCUGUUG [salish99_TOv1_r3_066] (puzzle: Sensor v3, turn-off variant 1)",apparent KD of MS2 coat protein,[1],77.3 nM
same,apparent KD of MS2 coat protein,[2],93.1 nM
same,apparent KD of MS2 coat protein,[3],121 nM
"AGUCCUGGAGUUAGGAUAUGAAGUAUCACUGCACUUCAGAAGGGACUUGAGGAUCACCCAAGUAGCCGUGAGGG [salish99_bmod_ex4_r4_003] (Eterna round: R97, puzzle: Brourd's mod of Exclusion 4)",apparent KD of MS2 coat protein,input ligand: FMN 200 uM,108 nM
same,apparent KD of MS2 coat protein,input ligand: none,56.7 nM
"CCUGUUCGGGUUGGUUUGGGCGGGACAUGAGGAUCACCCAUGUAGGAUAUUUUGGCUGCCGGUCGGGAGAAGGACAUGCUUGGG [-22.4, -21.3 kcal, 17% A] (Eterna round: R96, puzzle: Exclusion NG 3)",apparent KD of MS2 coat protein,input ligand: FMN 200 uM,135 nM
same,apparent KD of MS2 coat protein,[4],61.3 nM
same,apparent KD of MS2 coat protein,input ligand: none,98.3 nM
UCUAGACAUGAGGAUCACCCAUGUGAGGAUAUGAUGCGAUCGUCGAAAGACGAUAGCAUCAGAAGGCACAAAUG [Fiskers Ex 1 - 12] (puzzle: Exclusion 1),apparent KD of MS2 coat protein,[1],153 nM
same,apparent KD of MS2 coat protein,[2],56.9 nM
same,apparent KD of MS2 coat protein,[3],69.9 nM
"UCGGCGCGAGGAUAUACGUUUGCUCUUUUUCGUUUUUGUGUACAUGAGGAUCACCCAUGUAGAAGGCGCGCCGC [Apr-15 SS2-19] (Eterna round: R96, puzzle: Exclusion 2)",apparent KD of MS2 coat protein,input ligand: FMN 200 uM,80.9 nM
same,apparent KD of MS2 coat protein,[4],17.3 nM
same,apparent KD of MS2 coat protein,input ligand: none,31.5 nM
"CCCGAACAUGAGGAUCACCCAUGUCAGGAUAUAUUGCAGUGCAGAGCGCGUGCUAAGGAUAGAAGGGACAUGAA [Eternabot (L2) Solution 62] (Eterna round: R97, puzzle: Exclusion 1)",apparent KD of MS2 coat protein,input ligand: FMN 200 uM,31.4 nM
same,apparent KD of MS2 coat protein,input ligand: none,29 nM
